Experimental data reported in IntAct's records for PubMed 31515488.

B1: Germ cell-less protein-like 1 (Homo sapiens), Q96IK5 (parent)
chain: MGSLSSRVLRQPRPALAQQAQGARAGGSARRPDTGDDAAGHGFCYCAGSHKRKRSSGSFCYCHPDSETDEDEEEGDEQQRLLNTPRRKKLKSTSKYIYQTLFLNGENSDIKICALGEEWSLHKIYLCQSGYFSSMFSGSWKESSMNIIELEIPDQNIDVEALQVAFGSLYRDDVLIKPSRVVAILAAACLLQLDGLIQQCGETMKETVNVKTVCGYYTSAGTYGLDSVKKKCLEWLLNNLMTHQNVELFKELSINVMKQLIGSSNLFVMQVEMDIYTALKKWMFLQLVPSWNGSLKQLLTETDVWFSKQRKDFEGMAFLETEQGKPFVSVFRHLRLQYIISDLASARIIEQDAVVPSEWLSSVYKQQWFAMLRAEQDSEVGPQEINKEELEGNSMRCGRKLAKDGEYCWRWTGFNFGFDLLVTYTNRYIIFKRNTLNQPCSGSVSLQPRRSIAFRLRLASFDSSGKLICSRTTGYQILTLEKDQEQVVMNLDSRLLIFPLYICCNFLYISPEKKN
partner: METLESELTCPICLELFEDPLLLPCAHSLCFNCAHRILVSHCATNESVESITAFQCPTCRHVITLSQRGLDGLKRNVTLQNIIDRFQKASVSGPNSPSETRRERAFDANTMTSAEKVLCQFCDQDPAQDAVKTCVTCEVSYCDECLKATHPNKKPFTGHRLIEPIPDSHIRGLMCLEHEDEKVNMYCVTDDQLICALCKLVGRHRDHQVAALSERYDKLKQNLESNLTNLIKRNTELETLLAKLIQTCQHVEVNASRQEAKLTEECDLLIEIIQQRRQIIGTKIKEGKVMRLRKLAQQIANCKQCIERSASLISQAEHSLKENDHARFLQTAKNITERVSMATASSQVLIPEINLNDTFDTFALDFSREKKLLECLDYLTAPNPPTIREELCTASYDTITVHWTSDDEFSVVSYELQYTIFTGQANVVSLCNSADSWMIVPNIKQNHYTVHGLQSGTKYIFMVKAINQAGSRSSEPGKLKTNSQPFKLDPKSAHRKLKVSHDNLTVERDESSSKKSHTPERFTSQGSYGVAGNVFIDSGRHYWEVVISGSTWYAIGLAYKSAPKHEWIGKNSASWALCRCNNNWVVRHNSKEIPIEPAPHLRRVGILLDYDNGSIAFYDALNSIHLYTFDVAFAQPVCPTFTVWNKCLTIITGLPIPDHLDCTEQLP
B2: Transmembrane protein 79 (Homo sapiens), Q9BSE2 (parent)
chain: MTEQETLALLEVKRSDSPEKSSPQALVPNGRQPEGEGGAESPGAESLRVGSSAGSPTAIEGAEDGLDSTVSEAATLPWGTGPQPSAPFPDPPGWRDIEPEPPESEPLTKLEELPEDDANLLPEKAARAFVPIDLQCIERQPQEDLIVRCEAGEGECRTFMPPRVTHPDPTERKWAEAVVRPPGCSCGGCGSCGDREWLRAVASVGAALILFPCLLYGAYAFLPFDVPRLPTMSSRLIYTLRCGVFATFPIVLGILVYGLSLLCFSALRPFGEPRREVEIHRRYVAQSVQLFILYFFNLAVLSTYLPQDTLKLLPLLTGLFAVSRLIYWLTFAVGRSFRGFGYGLTFLPLLSMLMWNLYYMFVVEPERMLTATESRLDYPDHARSASDYRPRPWG
B3: Protein FAM9B (Homo sapiens), Q8IZU0 (parent)
chain: MAAWGKKHAGKDPVRDECEERNRFTETREEDVTDEHGEREPFAETDEHTGANTKKPEDTAEDLTAKRKRMKMDKTCSKTKNKSKHALRKKQLKRQKRDYIHSLKLLNVLEEYITDEQKEEEEEEGEEEELIRIFQEQQKKWQQYRSVRRERLKEMKLLRDQFVKALEDFEDLCDRVFSDEDSELDN
partner: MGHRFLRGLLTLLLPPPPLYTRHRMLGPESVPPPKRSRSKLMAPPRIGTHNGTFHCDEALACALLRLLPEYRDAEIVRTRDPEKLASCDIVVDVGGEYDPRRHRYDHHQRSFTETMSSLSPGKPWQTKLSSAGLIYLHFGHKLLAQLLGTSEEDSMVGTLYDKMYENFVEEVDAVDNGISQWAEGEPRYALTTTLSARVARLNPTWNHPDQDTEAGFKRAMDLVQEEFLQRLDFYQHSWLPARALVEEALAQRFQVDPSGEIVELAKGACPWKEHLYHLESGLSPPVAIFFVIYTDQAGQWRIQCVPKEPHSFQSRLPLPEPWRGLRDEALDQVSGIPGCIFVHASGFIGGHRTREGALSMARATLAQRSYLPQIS
B4: Tektin-4 (Homo sapiens), Q8WW24 (parent)
chain: MAQTVPPCELPCKEYDVARNTGAYTSSGLATASFRTSKYLLEEWFQNCYARYHQAFADRDQSERQRHESQQLATETQALAQRTQQDSTRTVGERLQDTHSWKSELQREMEALAAETNLLLAQKQRLERALDATEVPFSITTDNLQCRERREHPNLVRDHVETELLKEAELIRNIQELLKRTIMQAVSQIRLNREHKETCEMDWSDKMEAYNIDETCGRHHSQSTEVQAHPYSTTFQESASTPETRAKFTQDNLCRAQRERLASANLRVLVDCILRDTSEDLRLQCDAVNLAFGRRCEELEDARYKLHHHLHKTLREITDQEHNVAALKQAIKDKEAPLHVAQTRLYLRSHRPNMELCRDAAQFRLLSEVEELNMSLTALREKLLEAEQSLRNLEDIHMSLEKDIAAMTNSLFIDRQKCMAHRTRYPTILQLAGYQ
partner: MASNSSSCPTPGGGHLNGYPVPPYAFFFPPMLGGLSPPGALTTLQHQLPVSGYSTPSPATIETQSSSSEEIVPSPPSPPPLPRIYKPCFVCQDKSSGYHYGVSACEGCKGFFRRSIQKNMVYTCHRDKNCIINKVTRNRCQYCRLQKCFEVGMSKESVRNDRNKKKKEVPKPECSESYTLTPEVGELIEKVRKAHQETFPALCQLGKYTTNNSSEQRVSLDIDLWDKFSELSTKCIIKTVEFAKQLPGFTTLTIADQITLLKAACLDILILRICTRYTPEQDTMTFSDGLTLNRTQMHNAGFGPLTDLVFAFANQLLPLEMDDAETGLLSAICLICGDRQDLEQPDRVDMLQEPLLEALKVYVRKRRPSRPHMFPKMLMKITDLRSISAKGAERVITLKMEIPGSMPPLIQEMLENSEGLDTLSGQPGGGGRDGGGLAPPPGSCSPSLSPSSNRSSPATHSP

Variants of: B1
Conditions: with tri18_human MID1, O15344

Row | Variant | effect of a mutation on the interaction
1 | K123R | with no effect
2 | I147V | with no effect
3 | K281Q | with no effect
4 | I340V | with no effect
5 | R449Q | with no effect
6 | R457H | with no effect

Variants of: B2
Conditions: with pspc_human SFTPC

Row | Variant | effect of a mutation on the interaction
7 | S104T | with no effect
8 | V147M | with no effect
9 | D144G | with no effect

Variants of: B2
Conditions: with sarco_human SLN

Row | Variant | effect of a mutation on the interaction
10 | S104T | with no effect
11 | V147M | with no effect
12 | D144G | with no effect

Variants of: B2
Conditions: with sc22a_human SEC22A

Row | Variant | effect of a mutation on the interaction
13 | S104T | with no effect
14 | V147M | with no effect
15 | D144G | with no effect

Variants of: B2
Conditions: with tx264_human TEX264, Q9Y6I9
Sequence of tx264_human TEX264, Q9Y6I9 (Q9Y6I9 whole entry): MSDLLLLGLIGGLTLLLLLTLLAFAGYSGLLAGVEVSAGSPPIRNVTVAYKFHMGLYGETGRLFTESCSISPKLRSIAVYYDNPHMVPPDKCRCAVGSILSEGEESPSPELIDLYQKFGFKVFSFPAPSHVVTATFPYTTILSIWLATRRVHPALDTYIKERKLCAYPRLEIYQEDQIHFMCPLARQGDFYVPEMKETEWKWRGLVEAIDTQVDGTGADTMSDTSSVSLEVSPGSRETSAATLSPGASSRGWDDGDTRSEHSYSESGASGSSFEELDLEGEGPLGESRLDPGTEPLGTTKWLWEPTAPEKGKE

Row | Variant | effect of a mutation on the interaction
16 | S104T | with no effect
17 | V147M | with no effect
18 | D144G | with no effect

Variants of: B2
Conditions: with tnmd_human TNMD

Row | Variant | effect of a mutation on the interaction
19 | V322I | with no effect

Variants of: B3
Conditions: with myg1_human MYG1, Q9HB07

Row | Variant | effect of a mutation on the interaction
20 | R23H | with no effect

Variants of: B4
Conditions: with rara_human RARA

Row | Variant | effect of a mutation on the interaction
21 | R64W | with no effect
22 | A80V | disrupting interaction strength
